Assay results reported in US9097721B2, “Compositions comprising engineered phosphothreonine affinity reagents, methods of making, and methods of use” (The Board of Trustees of the University of Illinois, priority 2012, dated 2015).

How the values were obtained:
[1] = biological target: T1, Rad9-pT peptide (Saccharomyces cerevisiae, UniProt P14737); assay: Phage ELISA of phage-displayed FHA1 domains; format: binding, yeast; details: for binding to Rad9-pT peptide when phage-displayed: M13 protein III fusion, DsbA signal sequence; for binding to Rad9-pT peptide when phage-displayed with chaperones: co-expression of dsbA, dsbC, fkpA, skp and surA
T1 construct: host or cells: chemical synthesis
Method: To amplify the phage particles displaying the recombinant FHA1 variants, TG1 bacterial cells (5 mL; Stratagene) harboring the phagemid DNA were infected at mid-log (OD600nm=0.5-0.6) with M13K07 helper phage (New England Biolabs) at a multiplicity of infection (MOI) of 20 for 1 h at 37° C. at 150 rpm. Infected cells were centrifuged, and the pellet was resuspended in fresh Luria Bertani medium (LB: 10 g Tryptone, 5 g Yeast extract, and 10 g NaCl per liter) supplemented with 50 μg/mL carbenicillin and 50 μg/ml kanamycin, and phage were amplified overnight at 30° C. at 250 rpm. All of the phage ELISA steps were performed at room temperature. Biotinylated peptides (100 μL, 5 μg/mL) were immobilized on Nunc MaxiSorp flat-bottom 96 well plates (Thermo Fisher Scientific) via NeutrAvidin™ Biotin binding protein (100 μL, 10 μg/mL; Thermo Fisher Scientific) and blocked with 2% skim milk in 1×PBS (200 μL per well). After washing with Phosphate Buffered Saline (PBS: 0.14 M Sodium Chloride, 0.003 M Potassium Chloride, 0.002 M Potassium Phosphate, and 0.01 M Sodium Phosphate), the wells were incubated with the phage supernatant (100 μL of phage diluted 1:2 with PBS containing 0.1% Tween 20 (PBST)) for 1 h and washed three times with PBST. The binding phage were detected using anti-M13 antibody conjugated to horse radish peroxidase (HRP) (GE Healthcare) diluted 1:5000 with PBST. After washing away the unbound antibody, the chromogenic substrate for HRP; 2,2′-Azinobis (3-ethylbenzothiazoline-6-Sulfonic Acid) diammonium salt (Thermo Fisher Scientific), supplemented with hydrogen peroxide was added (100 μL per well), and the absorbance of the green colored complex was measured at 405 nm on POLARstar OPTIMA microtiter plate reader (BMG Labtech).

[2] = biological target: T2, pT peptide (Rad 9-pT: SLEVpTEADATFYAKK) (Saccharomyces cerevisiae, UniProt P14737); details: Durocher et al. (2000); read-out: previously reported Kd by ITC; cited from earlier work
T2 construct: host or cells: chemical synthesis

[3] = biological target: T3, cognate pT peptide (Rad9-pT) (Saccharomyces cerevisiae, UniProt P14737); assay: FTS assay, Tm shift in the presence of the cognate pT peptide; format: binding, yeast
T3 construct: host or cells: chemical synthesis
Method: (§1) The FTS assay was performed on a MxPro-Mx3005P instrument (Stratagene) following the protocol described by Giuliani et al (Giuliani et al. (2008) Biochemistry 47, 13974-84). It is a real-time assay using the SYBR® Green experiment setting with dissociation curve. The default FRROX filter set was used with an excitation wavelength of 492 nm and emission wavelength of 610 nm. FHA1 domains diluted with PBS to 2× final concentration (i.e. 2 μM and 8 μM) were mixed with 10×SYPRO® Orange protein gel stain (Invitrogen; 5000× concentration in DMSO) to give a final dye concentration of 10×. Then, to the protein wells only, 10 μL of the dye+protein mixture was added along with 10 μL of 1×PBS buffer. In other wells, 10 μL of either the pT peptide or its non-phosphorylated form (diluted to 2× final concentration with PBS, i.e. 100 μM and 500 μM) was added to 10 μL of dye+protein mixture. The final reaction volume was 20 μL with final concentrations of 1 μM or 4 μM of FHA1 domains, 50 μM or 250 μM of pT and non-phosphorylated peptides and 5× final concentration of the SYPRO® Orange. The assay was performed in duplicate in 96 well white PCR plates (BIO-Rad) covered with optically clear Microseal® ‘B’ Film (Bio-Rad) and heated from 25° C. to 95° C. and the melting curve was obtained with fluorescence (R) values plotted on the Y-axis and increasing temperature (° C.) on the X-axis. The mid-point of the curve gives the melting temperature (Tm), which shifts to a higher temperature in the presence of the pT peptide.
(§2) The Tm values of FHA1 variants were determined by FTS assay (Giuliani et al. (2008) Biochemistry 47, 13974-84). A representative Tm curve for the G2 variant at 1 μM concentration is shown (solid squares), alone and in the presence of the pT peptide (FIG. 11). […] The Tm values of the thermally stable variants (along with WT and D2 variant) at 1 μM and 4 μM concentration, along with the Tm shift in the presence of two different concentrations (50 μM and 250 μM) of the pT peptide, are listed in Table S3.

[4] = Fluorescence-based thermal shift (FTS) assay, melting temperature; format: physicochemical; details: mid-point of melting curve
Method: as §1
To evaluate the thermal stability of the D2 variant, phage particles displaying the D2 variant were heated at various temperatures (30° C., 37° C., 50° C., 60° C., 70° C., 80° C., and 95° C.) prior to incubation with the cognate pT peptide (Rad9-pT) and the non-phosphorylated form of the same peptide (Rad9-T). […] (FIG. 8). The D2 variant (purified six-his tagged protein) was mixed with SYPRO orange dye with or without the Rad9-pT-containing peptide and heated from 25° C. to 95° C. in a real-time PCR experiment known as the Fluorescence-based thermal shift (FTS) assay^36. In this assay, initially, the fluorescence of SYPRO orange dye is quenched in the aqueous environment of a folded protein, but as the protein starts to unfold upon heating, the dye interacts with the hydrophobic core of the protein and its fluorescence increases. Therefore, an increase in fluorescence of the dye is directly proportional to protein unfolding, until a temperature (referred to as Tm here) is reached at which the dye fluorescence decreases due to aggregation and precipitation of the protein. The melting temperature (Tm) of the D2 variant was determined by fluorescence-based thermal shift (FTS) assay to be approximately 5° C. lower than the Tm of the WT FHA1 domain. To improve the thermal stability of the D2 variant, affinity selection was carried out by heating the phage library displaying D2 variants at 50° C. prior to incubation with the pT peptide ligand to favor the isolation of variants that remained folded and functional above 50° C.
as §2
The Tm (temperature at which 50% of the protein is unfolded) of the protein domain variants was determined by a fluorescence-based thermal shift assay (Giuliani et al. (2008) Biochemistry 47, 13974-84). The proteins were mixed with SYPRO orange dye, and heated from 25° C. to 95° C. on a real-time thermocycler. […]

B1: WT: N-terminal FHA1 domain of S. cerevisiae Rad53 protein kinase, residues 1-170 (SEQ ID NO:7) (protein, listed as Saccharomyces cerevisiae)
chain: MENITQPTQQSTQATQRFLIEKFSQEQIGENIVCRVICTTGQIPIRDLSADISQVLKEKRSIKKVWTFGRNPACDYHLGNISRLSNKHFQILLGEDGNLLLNDISTNGTWLNGQKVEKNSNQLLSQGDEITVGVGVESDILSLVIFINDKFKQCLEQNKVDRIRSNLKNT
binding to Rad9-pT peptide when phage-displayed [1]: non-functional
binding to Rad9-pT peptide when phage-displayed ([1]; listed as WT FHA1 domain): did not bind
binding to Rad9-pT peptide when phage-displayed ([1]; listed as wild-type (WT) FHA1 domain): no binding was detected
binding to Rad9-pT peptide when phage-displayed via TorA signal sequence [1]: only detected when the phage particles were concentrated 50 times
binding to Rad9-pT peptide when phage-displayed via TorA signal sequence ([1]; listed as WT FHA1 domain): only partially restored
binding to Rad9-pT peptide when phage-displayed with chaperones [1]: remained nonfunctional
binding to Rad9-pT peptide when phage-displayed with chaperones ([1]; listed as WT FHA1 domain): did not restore the activity
Kd [2]: 530 nM
Tm shift (° C.) in the presence of pT peptide ([3]; 50 μM pT peptide, protein 1 μM): 1.7 °C
Tm shift (° C.) in the presence of pT peptide ([3]; 50 μM pT peptide, protein 4 μM): 1.95 °C
Tm shift (° C.) in the presence of pT peptide ([3]; 250 μM pT peptide, protein 1 μM): 3.8 °C
Tm shift (° C.) in the presence of pT peptide ([3]; 250 μM pT peptide, protein 4 μM): 3.55 °C
Tm (° C.) ([4]; protein concentration 1 μM): 66.7 °C
Tm (° C.) ([4]; protein concentration 4 μM): 66.4 °C
